One assay concerns the target HLA-A*11:01. The assay can be described thus: IEDB peptide-MHC binding, purified MHC/direct/fluorescence; filed as Kd, often an IC50 or EC50 that approximates it; ≥ and ≤ were set here for values at or beyond the usual limits of such assays. Particulars: source organism: SARS-CoV1.
The next assay has as its target HLA-A*03:01. The assay is described as above. The note with it: source organism: SARS-CoV1.

This passage reports Kd results from the Immune Epitope Database (IEDB).

The term Kd denotes the constant that tells how readily two partners part at equilibrium. For the sequence AVLQSGFRK, the Kd stood at 0.08 µM with HLA-A*11:01 and 0.259 µM with HLA-A*03:01.
SSSLTSLLK: the figures for the Kd with HLA-A*11:01 and with HLA-A*03:01 were 0.051 µM and 0.276 µM, respectively.
As for KCYGVSATK, the Kd came out at 8.38 µM with HLA-A*11:01 and 2.07 µM with HLA-A*03:01.
Consider KVIQPRVEK, for which the Kd with HLA-A*11:01 came out at 0.168 µM; with HLA-A*03:01 it was 0.595 µM.
The matching figures for AITTSNCAK: 0.054 µM and 0.646 µM.
ATVVIGTSK: the values for the Kd with HLA-A*11:01 and with HLA-A*03:01 were 0.03 µM and 0.232 µM, respectively.
With ATNNVFRLK, the Kd with HLA-A*11:01 was 0.233 µM; with HLA-A*03:01, 0.401 µM.
The matching figures for ITCVVIPSK: 0.29 µM and 1.88 µM.
With AVDPAKAYK, the Kd in the assay with HLA-A*11:01 turned out to be 0.124 µM; with HLA-A*03:01, 1.67 µM.
Take SSNVANYQK: the Kd in the assay with HLA-A*11:01 is 0.023 µM; with HLA-A*03:01 it was 0.442 µM.
The matching figures for QLFKPLTKK: 0.237 µM and 0.215 µM.
Take KMQRMLLEK: the Kd turned out to be 0.341 µM with HLA-A*11:01 and 0.305 µM with HLA-A*03:01.
Consider KLFAAETLK, for which the Kd with HLA-A*11:01 was 0.234 µM.
As to ALRANSAVK, the Kd in the assay with HLA-A*11:01 was 1.76 µM; with HLA-A*03:01, 0.197 µM.
For ATFSVPMEK, the Kd with HLA-A*11:01 amounted to 0.028 µM; with HLA-A*03:01, 0.265 µM.
For VTFQGKFKK the same measures were 0.091 µM and 0.321 µM.
For LIGANYLGK the same measures were 1.47 µM and 0.999 µM.
For the sequence RLYYDSMSY, the Kd with HLA-A*11:01 amounted to 0.237 µM; with HLA-A*03:01, 0.052 µM.
On to VVYRGTTTY, for which the Kd is 0.117 µM with HLA-A*11:01 and 0.042 µM in the assay with HLA-A*03:01.
Consider YIFFASFYY, for which the Kd is 0.347 µM in the assay with HLA-A*11:01 and 1.18 µM with HLA-A*03:01.
The matching figures for GVAMPNLYK: 0.073 µM and 0.06 µM.
With GTLSYDNLK, the Kd in the assay with HLA-A*11:01 amounted to 0.048 µM; with HLA-A*03:01, 0.365 µM.
Regarding ASLPTTIAK, the Kd with HLA-A*11:01 is 0.019 µM; in the assay with HLA-A*03:01 it was 0.056 µM.
